Consider 3 substances from paper PMC6343799.

One experiment has as its target SHR-1210-IgG1 (human). Kind of experiment: SPR.
Experiment [1] has as its target cyno PD1 expressed on CHO-K1 stable cell line (Macaca fascicularis) (UniProt B0LAJ3). Kind of experiment: flow cytometry on cells.
Experiment [2] concerns the target human PD1 expressed on CHO-K1 stable cell line (Homo sapiens) (UniProt Q15116). The experiment in a line: flow cytometry on cells.

On to “His-tagged monomeric cynomolgus monkey PD1 ectodomain (domain or fragment)”, for which the dissociation constant Kd with SHR-1210-IgG1 (human) was 32 nM.

Substance “His-tagged monomeric human PD1 ectodomain (from UniProt Q15116 25-170) (domain or fragment)” had a dissociation constant Kd with SHR-1210-IgG1 (human) of 4 nM.

Take SHR-1210-IgG1 (antibody): the EC50 is 6.53 nM in experiment [1] and 2.32 nM in experiment [2].
